T1: TNFR1 (Homo sapiens, UniProt P19438)
T1 chain: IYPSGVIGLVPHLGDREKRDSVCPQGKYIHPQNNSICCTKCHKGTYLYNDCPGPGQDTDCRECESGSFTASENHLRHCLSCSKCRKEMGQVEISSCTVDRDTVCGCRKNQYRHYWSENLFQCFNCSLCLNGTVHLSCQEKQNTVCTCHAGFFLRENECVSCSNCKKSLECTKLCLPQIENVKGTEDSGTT


Target: T1, TNFR1
Assay: yeast display SC50

Binder	apparent Kd (screen)
L99A (designed binder) SMEEEVEKAAKEYEKKKKEAIEKHLEKLKAKDKEAAERFLKELEEAAKEYAKDEAKTMSEEEAKRRAKKYKEKVLLSELSEEEQKEIKEAEEKLVRTIAKYVEEAAK	16.7 nM
D53Q (designed binder) SMEEEVEKAAKEYEKKKKEAIEKHLEKLKAKDKEAAERFLKELEEAAKEYAKQEAKTMSEEEAKRRAKKYKEKVLLSELSEEEQKEIKEAEEKLVRTILKYVEEAAK	2.05 nM
V102S (designed binder) SMEEEVEKAAKEYEKKKKEAIEKHLEKLKAKDKEAAERFLKELEEAAKEYAKDEAKTMSEEEAKRRAKKYKEKVLLSELSEEEQKEIKEAEEKLVRTILKYSEEAAK	0.446 nM
E54M (designed binder) SMEEEVEKAAKEYEKKKKEAIEKHLEKLKAKDKEAAERFLKELEEAAKEYAKDMAKTMSEEEAKRRAKKYKEKVLLSELSEEEQKEIKEAEEKLVRTILKYVEEAAK	2.48 nM
K17C (designed binder) SMEEEVEKAAKEYEKKCKEAIEKHLEKLKAKDKEAAERFLKELEEAAKEYAKDEAKTMSEEEAKRRAKKYKEKVLLSELSEEEQKEIKEAEEKLVRTILKYVEEAAK	2.73 nM
E44G (designed binder) SMEEEVEKAAKEYEKKKKEAIEKHLEKLKAKDKEAAERFLKELGEAAKEYAKDEAKTMSEEEAKRRAKKYKEKVLLSELSEEEQKEIKEAEEKLVRTILKYVEEAAK	2.48 nM
A51D (designed binder) SMEEEVEKAAKEYEKKKKEAIEKHLEKLKAKDKEAAERFLKELEEAAKEYDKDEAKTMSEEEAKRRAKKYKEKVLLSELSEEEQKEIKEAEEKLVRTILKYVEEAAK	12.5 nM
L76T (designed binder) SMEEEVEKAAKEYEKKKKEAIEKHLEKLKAKDKEAAERFLKELEEAAKEYAKDEAKTMSEEEAKRRAKKYKEKVLTSELSEEEQKEIKEAEEKLVRTILKYVEEAAK	0.653 nM
E92S (designed binder) SMEEEVEKAAKEYEKKKKEAIEKHLEKLKAKDKEAAERFLKELEEAAKEYAKDEAKTMSEEEAKRRAKKYKEKVLLSELSEEEQKEIKEAESKLVRTILKYVEEAAK	7.07 nM
E34Y (designed binder) SMEEEVEKAAKEYEKKKKEAIEKHLEKLKAKDKYAAERFLKELEEAAKEYAKDEAKTMSEEEAKRRAKKYKEKVLLSELSEEEQKEIKEAEEKLVRTILKYVEEAAK	0.539 nM
Y50E (designed binder) SMEEEVEKAAKEYEKKKKEAIEKHLEKLKAKDKEAAERFLKELEEAAKEEAKDEAKTMSEEEAKRRAKKYKEKVLLSELSEEEQKEIKEAEEKLVRTILKYVEEAAK	9.41 nM
R38P (designed binder) SMEEEVEKAAKEYEKKKKEAIEKHLEKLKAKDKEAAEPFLKELEEAAKEYAKDEAKTMSEEEAKRRAKKYKEKVLLSELSEEEQKEIKEAEEKLVRTILKYVEEAAK	11.4 nM
E92F (designed binder) SMEEEVEKAAKEYEKKKKEAIEKHLEKLKAKDKEAAERFLKELEEAAKEYAKDEAKTMSEEEAKRRAKKYKEKVLLSELSEEEQKEIKEAEFKLVRTILKYVEEAAK	13.8 nM
L75W (designed binder) SMEEEVEKAAKEYEKKKKEAIEKHLEKLKAKDKEAAERFLKELEEAAKEYAKDEAKTMSEEEAKRRAKKYKEKVWLSELSEEEQKEIKEAEEKLVRTILKYVEEAAK	0.446 nM
E26Y (designed binder) SMEEEVEKAAKEYEKKKKEAIEKHLYKLKAKDKEAAERFLKELEEAAKEYAKDEAKTMSEEEAKRRAKKYKEKVLLSELSEEEQKEIKEAEEKLVRTILKYVEEAAK	0.869 nM
V102N (designed binder) SMEEEVEKAAKEYEKKKKEAIEKHLEKLKAKDKEAAERFLKELEEAAKEYAKDEAKTMSEEEAKRRAKKYKEKVLLSELSEEEQKEIKEAEEKLVRTILKYNEEAAK	0.446 nM
L40M (designed binder) SMEEEVEKAAKEYEKKKKEAIEKHLEKLKAKDKEAAERFMKELEEAAKEYAKDEAKTMSEEEAKRRAKKYKEKVLLSELSEEEQKEIKEAEEKLVRTILKYVEEAAK	0.593 nM

Results, then the binder that gave them:

apparent Kd (screen)	Binder
0.446 nM	L75V (designed binder) SMEEEVEKAAKEYEKKKKEAIEKHLEKLKAKDKEAAERFLKELEEAAKEYAKDEAKTMSEEEAKRRAKKYKEKVVLSELSEEEQKEIKEAEEKLVRTILKYVEEAAK
0.539 nM	L25N (designed binder) SMEEEVEKAAKEYEKKKKEAIEKHNEKLKAKDKEAAERFLKELEEAAKEYAKDEAKTMSEEEAKRRAKKYKEKVLLSELSEEEQKEIKEAEEKLVRTILKYVEEAAK
1.69 nM	K93I (designed binder) SMEEEVEKAAKEYEKKKKEAIEKHLEKLKAKDKEAAERFLKELEEAAKEYAKDEAKTMSEEEAKRRAKKYKEKVLLSELSEEEQKEIKEAEEILVRTILKYVEEAAK
2.73 nM	V102Y (designed binder) SMEEEVEKAAKEYEKKKKEAIEKHLEKLKAKDKEAAERFLKELEEAAKEYAKDEAKTMSEEEAKRRAKKYKEKVLLSELSEEEQKEIKEAEEKLVRTILKYYEEAAK
3 nM	A55I (designed binder) SMEEEVEKAAKEYEKKKKEAIEKHLEKLKAKDKEAAERFLKELEEAAKEYAKDEIKTMSEEEAKRRAKKYKEKVLLSELSEEEQKEIKEAEEKLVRTILKYVEEAAK
0.593 nM	E78V (designed binder) SMEEEVEKAAKEYEKKKKEAIEKHLEKLKAKDKEAAERFLKELEEAAKEYAKDEAKTMSEEEAKRRAKKYKEKVLLSVLSEEEQKEIKEAEEKLVRTILKYVEEAAK
0.446 nM	E62M (designed binder) SMEEEVEKAAKEYEKKKKEAIEKHLEKLKAKDKEAAERFLKELEEAAKEYAKDEAKTMSEEMAKRRAKKYKEKVLLSELSEEEQKEIKEAEEKLVRTILKYVEEAAK
0.956 nM	R65G (designed binder) SMEEEVEKAAKEYEKKKKEAIEKHLEKLKAKDKEAAERFLKELEEAAKEYAKDEAKTMSEEEAKGRAKKYKEKVLLSELSEEEQKEIKEAEEKLVRTILKYVEEAAK
10.4 nM	E49H (designed binder) SMEEEVEKAAKEYEKKKKEAIEKHLEKLKAKDKEAAERFLKELEEAAKHYAKDEAKTMSEEEAKRRAKKYKEKVLLSELSEEEQKEIKEAEEKLVRTILKYVEEAAK
5.84 nM	K18P (designed binder) SMEEEVEKAAKEYEKKKPEAIEKHLEKLKAKDKEAAERFLKELEEAAKEYAKDEAKTMSEEEAKRRAKKYKEKVLLSELSEEEQKEIKEAEEKLVRTILKYVEEAAK
1.27 nM	E5V (designed binder) SMEEVVEKAAKEYEKKKKEAIEKHLEKLKAKDKEAAERFLKELEEAAKEYAKDEAKTMSEEEAKRRAKKYKEKVLLSELSEEEQKEIKEAEEKLVRTILKYVEEAAK
0.446 nM	K71C (designed binder) SMEEEVEKAAKEYEKKKKEAIEKHLEKLKAKDKEAAERFLKELEEAAKEYAKDEAKTMSEEEAKRRAKKYCEKVLLSELSEEEQKEIKEAEEKLVRTILKYVEEAAK
1.05 nM	E60Q (designed binder) SMEEEVEKAAKEYEKKKKEAIEKHLEKLKAKDKEAAERFLKELEEAAKEYAKDEAKTMSQEEAKRRAKKYKEKVLLSELSEEEQKEIKEAEEKLVRTILKYVEEAAK
0.446 nM	E103H (designed binder) SMEEEVEKAAKEYEKKKKEAIEKHLEKLKAKDKEAAERFLKELEEAAKEYAKDEAKTMSEEEAKRRAKKYKEKVLLSELSEEEQKEIKEAEEKLVRTILKYVHEAAK
15.2 nM	I98T (designed binder) SMEEEVEKAAKEYEKKKKEAIEKHLEKLKAKDKEAAERFLKELEEAAKEYAKDEAKTMSEEEAKRRAKKYKEKVLLSELSEEEQKEIKEAEEKLVRTTLKYVEEAAK
13.8 nM	E54I (designed binder) SMEEEVEKAAKEYEKKKKEAIEKHLEKLKAKDKEAAERFLKELEEAAKEYAKDIAKTMSEEEAKRRAKKYKEKVLLSELSEEEQKEIKEAEEKLVRTILKYVEEAAK
1.86 nM	K56E (designed binder) SMEEEVEKAAKEYEKKKKEAIEKHLEKLKAKDKEAAERFLKELEEAAKEYAKDEAETMSEEEAKRRAKKYKEKVLLSELSEEEQKEIKEAEEKLVRTILKYVEEAAK
0.49 nM	K23R (designed binder) SMEEEVEKAAKEYEKKKKEAIERHLEKLKAKDKEAAERFLKELEEAAKEYAKDEAKTMSEEEAKRRAKKYKEKVLLSELSEEEQKEIKEAEEKLVRTILKYVEEAAK
